What was measured:
[1] = target: PSGL-1/mIgG2b fusion protein co-expressed with porcine α1,3 galactosyltransferase (α-Gal substituted) (human; mouse) (UniProt Q14242); test: sandwich ELISA, fusion protein made in CHO cells with α1,3GalT against the same made without α1,3GalT
[2] = target: PSGL-1/mIgG2b fusion protein co-expressed in CHO-K1 cells with porcine α1,3GalT and core 2 β1,6 GlcNAc transferase (C2 GnTI) (human; mouse) (UniProt Q14242); test: sandwich ELISA, fusion protein from CHO-K1 with α1,3GalT and C2 GnTI against fusion protein from CHO-K1 without α1,3GalT
[3] = target: PSGL-1/mIgG2b fusion protein co-expressed in CHO-K1 cells with porcine α1,3GalT and core 2 β1,6 GlcNAc transferase (C2 GnTI) (human; mouse) (UniProt Q14242); test: sandwich ELISA, fusion protein from CHO-K1 with α1,3GalT and C2 GnTI against fusion protein from CHO-K1 with α1,3GalT alone
[4] = target: PSGL-1/mIgG2b fusion protein co-expressed with porcine α1,3 galactosyltransferase (α-Gal substituted) (human; mouse) (UniProt Q14242); test: sandwich ELISA, fusion protein made in COS cells with α1,3GalT against the same made in COS without α1,3GalT
[5] = target: PSGL-1/mIgG2b fusion protein co-expressed with porcine α1,3 galactosyltransferase (α-Gal substituted) (human; mouse) (UniProt Q14242); test: sandwich ELISA, fusion protein made in 293T cells with α1,3GalT against the same made without α1,3GalT

peroxidase-conjugated Griffonia (Bandeiraea) simplicifolia I isolectin B4 (cat.no. L-5391; Sigma)
fold increase in relative O.D. (GSA-reactivity/anti-mouse IgG reactivity) [1]: 1.8 fold | fold increase in α-Gal epitope density (relative O.D., GSA-reactivity/anti-mouse IgG reactivity) [2]: 13 fold | fold increase in α-Gal epitope density (relative O.D., GSA-reactivity/anti-mouse IgG reactivity) [3]: 7.4 fold | fold increase in relative O.D. (GSA-reactivity/anti-mouse IgG reactivity) [4]: 5.3 fold | fold increase in relative O.D. (GSA-reactivity/anti-mouse IgG reactivity) [5]: 3.1 fold
